Experimental data from patent US20250298041A1.

Columns and labels:
[1] = target: Recombinant LBD of GPIbα (residues 1-290), WT (human) (UniProt P07359); experiment: VWF:NCo ELISA, immobilised GPIbα-LBD, 250 nM 6D12; activity/antigen ratio
[2] = target: Recombinant LBD of GPIbα (residues 1-290), WT (human) (UniProt P07359); experiment: VWF:GPIbNab ELISA on LBD-WT with activating nanobodies; pdVWF as the reference
[3] = target: Recombinant LBD of GPIbα (residues 1-290), WT (human) (UniProt P07359); experiment: activity/antigen ratio; VWF:GPIbR ELISA on LBD-WT with 1.0 mg/mL ristocetin
[4] = target: Recombinant LBD of GPIbα (residues 1-290), WT (human) (UniProt P07359); experiment: activity/antigen ratio; VWF:GPIbNab ELISA on LBD-WT with nanobody 6C4, pdVWF as reference
[5] = target: Recombinant LBD of GPIbα (residues 1-290), WT (human) (UniProt P07359); experiment: activity/antigen ratio; VWF:GPIbNab ELISA on LBD-WT with nanobody 6C11, pdVWF as reference
[6] = target: Recombinant LBD of GPIbα (residues 1-290), WT (human) (UniProt P07359); experiment: activity/antigen ratio; VWF:GPIbNab ELISA on LBD-WT with nanobody 6D12, pdVWF as reference
[7] = target: Recombinant LBD of GPIbα (residues 1-290), WT (human) (UniProt P07359); experiment: VWF:GPIbNab ELISA on LBD-WT with 6C11; pdVWF as the reference
[8] = target: Recombinant LBD of GPIbα (residues 1-290), D235Y/M239V (human) (UniProt P07359); experiment: activity/antigen ratio; VWF:GPIbM ELISA on LBD-D235Y/M239V without activator
Chain of Recombinant LBD of GPIbα (residues 1-290), D235Y/M239V (human) (P07359 17-306 D251Y/M255V limits assumed, form in doubt): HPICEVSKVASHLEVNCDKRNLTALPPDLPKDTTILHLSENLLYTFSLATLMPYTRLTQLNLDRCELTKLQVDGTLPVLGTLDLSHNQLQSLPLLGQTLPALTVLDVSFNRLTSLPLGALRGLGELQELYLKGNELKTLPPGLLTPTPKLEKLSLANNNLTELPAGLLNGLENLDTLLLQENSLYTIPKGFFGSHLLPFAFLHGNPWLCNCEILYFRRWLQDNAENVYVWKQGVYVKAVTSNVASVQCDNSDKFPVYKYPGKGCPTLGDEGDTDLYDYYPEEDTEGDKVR

[9] = target: Recombinant LBD of GPIbα (residues 1-290), WT (human) (UniProt P07359); experiment: VWF:GPIbNab ELISA on LBD-WT with 6C4 or 6D12 (not said which gives which end); pdVWF as the reference

Chain of Recombinant LBD of GPIbα (residues 1-290), WT (human) (P07359 17-306 limits assumed, form in doubt): as the sequence (P07359 17-306 D251Y/M255V limits assumed, form in doubt) above, with Y235D, V239M counted along it

Substance | VWF:NCo/VWF:Ag ratio [1] | VWF:GPIbNab/VWF:Ag ratio [2] | VWF:GPIbR/VWF:Ag [3] | VWF:GPIbNab6C4/VWF:Ag [4] | VWF:GPIbNab6C11/VWF:Ag [5] | VWF:GPIbNab6D12/VWF:Ag [6] | VWF:GPIbNab/VWF:Ag ratio [7] | VWF:GPIbM/VWF:Ag [8] | VWF:GPIbNab/VWF:Ag ratio [9]
Humate P (from UniProt P04275 764-2813) (ligand) | 1.2 | – | – | – | – | – | – | – | –
Plasma-derived VWF (pdVWF, Alphanate) (from UniProt P04275 764-2813) (ligand) | 1 | 1 | 0.84 | 1.05 | 1.01 | 0.93 | – | – | –
recombinant VWF (rVWF, Vonvendi) (from UniProt P04275 764-2813) (ligand) | 1.9 | – | 1.25 | 1.31 | – | 1.26 | 2.26 | 2.1 | 1.2 to 1.4
